Experimental data as given in the supplement of paper PMC10567573.

B1: PPP2R2B (parent)
chain: PSNRSFFSEIISSISDVKFSHSGR
B2: FAM189A2 (parent)
chain: NLAGFILGCQGAQFVSSVPRCDLV

Variants of: B1
Test: protein stability index of a GFP-peptide fusion (GPS, HEK-293T) (PSI 1-6); higher = more stable
Settings: c terminus: a fixed tail appended
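Also: lentivirally expressed fusions sorted by FACS into six bins by GFP to DsRed ratio, PSI derived from sequencing read proportions per bin multiplied by bin number.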

Variant | protein stability index
S22C | 1.89
S22A | 2.4
S22L | 2.48
S22M | 2.27
S22N | 2.58
S22E | 2.37
S22H | 2.48
S22K | 2.64
S22Y | 2.2
S22T | 2.42
S22W | 1.9
S22Q | 2.43
S22D | 2.79
S22V | 2.06
S22I | 2.11
S22F | 2.19
S22P | 2.38
S22R | 2.71
S22G | 2.57
R24M | 1.97
R24D | 3.18
R24T | 2.33
R24F | 1.65
R24N | 2.81
R24Y | 3.23

Variant | protein stability index
R24P | 2.31
R24I | 1.61
R24W | 1.98
R24C | 1.87
R24K | 2.65
R24S | 3.12
R24G | 2.21
R24Q | 2.39
R24L | 1.75
R24A | 2.36
R24V | 1.59
R24H | 1.94
R24E | 2.94
V17A | 2.27
V17M | 2.53
V17C | 2.4
V17N | 2.9
V17R | 2.31
V17P | 2.63
V17D | 3.18
V17E | 3.05
V17Y | 2.29
V17F | 2.18
V17W | 2.49
V17H | 3.21

Variant | protein stability index
V17G | 2.53
V17T | 2.72
V17L | 2.75
V17Q | 2.81
V17I | 2.53
V17S | 2.5
V17K | 2.73
S20K | 2.7
S20E | 2.94
S20V | 2.33
S20C | 2.12
S20R | 1.94
S20D | 2.88
S20M | 1.95
S20L | 2.41
S20H | 2.18
S20T | 2.78
S20Q | 2.45
S20I | 2.22
S20W | 2.38
S20A | 2.39
S20G | 2.26
S20N | 2.27
S20Y | 1.75
S20F | 2.02

Variant | protein stability index
S20P | 2.48
S13R | 2.63
S13M | 1.76
S13T | 2.64
S13A | 1.87
S13Q | 2.82
S13I | 2.5
S13V | 1.99
S13P | 2.99
S13N | 2.79
S13H | 2.67
S13Y | 1.65
S13E | 3.26
S13C | 2.19
S13K | 2.19
S13G | 2.37
S13L | 2.45
S13W | 2.34
S13F | 1.73
S13D | 2.58
I11W | 2.59
I11P | 3.57
I11S | 3.2
I11T | 3.19
I11Q | 3.04

Variant | protein stability index
I11D | 3.46
I11N | 3.21
I11H | 3.46
I11K | 3
I11R | 2.97
I11G | 3.36
I11A | 3.34
I11C | 4.01
I11E | 3.59
I11L | 2.3
I11F | 4.67
I11V | 3.26
I11Y | 3.4
I11M | 2.69
G23K | 2.49
G23C | 2.36
G23A | 2.31
G23Q | 2.24
G23W | 2.09
G23D | 2.72
G23Y | 2.27
G23T | 2.14
G23E | 2.7
G23P | 2.74
G23I | 1.88

Variant | protein stability index
G23S | 2.33
G23V | 1.66
G23M | 2.25
G23L | 2.08
G23H | 2.27
G23N | 2.79
G23F | 2.09
G23R | 2.54
S15A | 1.73
S15T | 2.05
S15L | 2.13
S15Y | 2.05
S15D | 2.83
S15K | 2.35
S15Q | 2.31
S15E | 2.93
S15H | 2.39
S15I | 2.26
S15G | 2.65
S15R | 2.25
S15F | 1.79
S15C | 1.81
S15V | 2.27
S15N | 2.77
S15W | 2.34

Variant | protein stability index
S15M | 2.08
S15P | 2.85
D16L | 2.05
D16V | 2.17
D16R | 2.15
D16Q | 2.42
D16M | 2.02
D16K | 2.13
D16T | 2.28
D16F | 1.66
D16S | 1.92
D16H | 2.19
D16G | 2.29
D16E | 2.28
D16A | 2.34
D16I | 1.74
D16C | 1.92
D16Y | 1.61
D16N | 2.57
D16P | 2.56
D16W | 1.99
K18S | 2.61
K18C | 1.94
K18V | 2.09
K18M | 2.02

Variant | protein stability index
K18F | 2.17
K18I | 2.33
K18E | 2.35
K18G | 2.66
K18N | 2.36
K18H | 2.04
K18Q | 2.47
K18R | 2.55
K18W | 2.38
K18A | 2.15
K18P | 2.23
K18L | 2.35
K18Y | 1.97
K18D | 2.59
K18T | 2.31
F19D | 3.52
F19C | 3.03
F19R | 2.99
F19Y | 2.57
F19E | 3.58
F19M | 2.88
F19W | 1.97
F19P | 3
F19I | 2.43
F19L | 2.93

Variant | protein stability index
F19V | 2.5
F19A | 3.07
F19K | 3.02
F19G | 2.86
F19S | 3.3
F19T | 3.07
F19N | 3.15
F19Q | 2.79
F19H | 3.02
H21F | 1.88
H21M | 2.41
H21W | 2.31
H21N | 2.48
H21L | 2.03
H21V | 2.04
H21E | 2.87
H21S | 1.93
H21G | 2.39
H21P | 2.67
H21A | 2.7
H21Y | 1.97
H21D | 2.54
H21C | 2.22
H21R | 3.27
H21K | 2.85

Variant | protein stability index
H21I | 2.13
H21T | 2.11
H21Q | 2.26
S12E | 2.57
S12L | 1.69
S12A | 2.23
S12Y | 2.3
S12F | 1.72
S12H | 2.32
S12V | 1.82
S12G | 2.54
S12T | 2.28
S12M | 2.04
S12K | 2.49
S12P | 2.65
S12C | 2.06
S12Q | 2.33
S12I | 3.11
S12D | 2.54
S12R | 2.31
S12N | 2.5
S12W | 1.98
I10V | 2.83
I10W | 2.33
I10R | 2.79

Variant | protein stability index
I10T | 3.37
I10S | 3.09
I10Y | 3.01
I14S | 3.19
I14E | 4
I14M | 2.6
I14V | 2.81
I14H | 2.79
I14G | 3.26
I14D | 3.04
I14A | 2.79
I14R | 3.05
I14L | 2.54
I14F | 2.17
I14K | 3.17
I14Q | 3.18
I14P | 3.05
I14Y | 2.19
I14W | 2.4
I14T | 3.09
I14C | 2.46
I14N | 3.05

Variants of: B2
Test: as above
Settings: c terminus: a fixed tail appended

Variant | protein stability index
L23Y | 2.52
D22V | 2.39
D22K | 2.59
D22P | 3.08
D22F | 2.58
D22N | 3.21
C9K | 1.74
C9F | 2.36
F14K | 1.16
F14H | 1.87
F14P | 2.4
F14Y | 2.9
I6D | 2.68
I6S | 1.98
I6Y | 2.26
I6Q | 1.94
I6A | 1.46
I6N | 2.11
P19H | 3.01
P19Q | 2.65
V24F | 2.58

Variant | protein stability index
V24D | 1.76
V24K | 1.82
A12P | 2.99
A12D | 4.07
Q13F | 3
Q13C | 2.76
V18L | 2.27
S17H | 3.37
L7K | 1.69
L7F | 2.51
L7T | 2.58
G11N | 3.08
C21A | 2.57
C21H | 2.54
C21Q | 2.07
S16K | 3.56
L2Q | 3.01
L2T | 1.76
L2S | 1.55
L2W | 1.35
L2R | 1.87

Variant | protein stability index
L2K | 2.67
F5Q | 2.27
F5T | 1.86
F5M | 1.7
G4C | 3.26
G4F | 2.45
G4N | 3.42
A3W | 3.4
A3E | 2.11
A3T | 3.18
A3S | 1.12
A3D | 1.84
N1W | 3.42
N1C | 2.92
N1L | 2.75
R20Q | 1.45
R20P | 2.2
R20D | 3.39
V15R | 1.75
V15C | 2.72
